In this assay the target is T1, human TGF-β2 (human).
T1 sequence (P61812 303-414, looked up): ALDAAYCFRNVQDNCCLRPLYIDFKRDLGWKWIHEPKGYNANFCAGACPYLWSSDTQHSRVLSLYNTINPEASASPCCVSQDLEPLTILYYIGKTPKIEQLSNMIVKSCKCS
Nature of the assay: SPR.

The source of these data is PMC6726503.

B1: full-length rat betaglycan ectodomain (domain or fragment)
chain: GPEPSTRCELSPINASHPVQALMESFTVLSGCASRGTTGLPREVHVLNLRSTDQGPGQRQREVTLHLNPIASVHTHHKPIVFLLNSPQPLVWHLKTERLAAGVPRLFLVSEGSVVQFPSGNFSLTAETEERNFPQENEHLLRWAQKEYGAVTSFTELKIARNIYIKVGEDQVFPPTCNIGKNFLSLNYLAEYLQPKAAEGCVLPSQPHEKEVHIIELITPSSNPYSAFQVDIIVDIRPAQEDPEVVKNLVLILKCKKSVNWVIKSFDVKGNLKVIAPNSIGFGKESERSMTMTKLVRDDIPSTQENLMKWALDNGYRPVTSYTMAPVANRFHLRLENNEEMRDEEVHTIPPELRILLDPDHPPALDNPLFPGEGSPNGGLPFPFPDIPRRGWKEGEDRIPRPKQPIVPSVQLLPDHREPEEVQGGVDIALSVKCDHEKMVVAVDKDSFQTNGYSGMELTLLDPSCKAKMNGTHFVLESPLNGCGTRHRRSTPDGVVYYNSIVVQAPSPGDSSGWPDGYEDLESGDNGFPGDGDEGETAPLSRAGVVVFNCSLRQLRNPSGFQGQLDGNATFNMELYNTDLFLVPSPGVFSVAENEHVYVEVSVTKADQDLGFAIQTCFLSPYSNPDRMSDYTIIENICPKDDSVKFYSSKRVHFPIPHAEVDKKRFSFLFKSVFNTSLLFLHCELTLCSRKKGSLKLPRCVTPDDACTSLDATMIWTMMQNKKTFTKPLAVVLQVDYKENVPSTKDSSPIPPPPPQIFHGLDTLTV
B1 showed a Kd of 511 pM, a koff of 0.000755 s⁻¹ and an on-rate (kon) of 1.48e+06 M⁻¹ s⁻¹.

As usually defined, the Kd is the free concentration of one partner at which half of the binding sites on the other are occupied at equilibrium, for simple one-to-one binding. One may read the koff as a measure of how fast the partners let go of each other. Read a low koff as a long-lived complex. A word on the kon: it is the rate constant with which the complex forms.
